Paper PMC4333417 (Nucleic Acids Research, 2015)
Residue numbers refer to the chain shown, from its start.

T1: Sco5333 (Streptomyces coelicolor, UniProt Q9ADD4 1-301)
T1 sequence: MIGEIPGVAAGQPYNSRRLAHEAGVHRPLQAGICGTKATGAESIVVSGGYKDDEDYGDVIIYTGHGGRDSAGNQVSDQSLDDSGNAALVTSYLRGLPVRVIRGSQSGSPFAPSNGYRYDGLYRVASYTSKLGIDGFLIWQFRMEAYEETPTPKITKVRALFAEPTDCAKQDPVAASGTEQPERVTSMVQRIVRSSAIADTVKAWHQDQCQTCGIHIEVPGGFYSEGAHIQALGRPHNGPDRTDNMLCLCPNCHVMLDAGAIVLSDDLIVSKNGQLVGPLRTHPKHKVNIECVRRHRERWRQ

T2: Tbis1 (Thermobispora bispora DSM 43833, UniProt D6YAC6 2-309)
T2 sequence: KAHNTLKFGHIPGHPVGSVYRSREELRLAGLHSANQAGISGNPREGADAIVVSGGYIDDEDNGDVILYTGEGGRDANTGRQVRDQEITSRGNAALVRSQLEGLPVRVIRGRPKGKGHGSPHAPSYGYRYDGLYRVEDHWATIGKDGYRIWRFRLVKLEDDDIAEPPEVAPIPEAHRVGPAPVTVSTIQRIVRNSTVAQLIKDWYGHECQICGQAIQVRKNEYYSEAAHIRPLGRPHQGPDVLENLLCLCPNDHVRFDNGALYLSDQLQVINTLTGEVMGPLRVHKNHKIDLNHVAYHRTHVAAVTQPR

B1: 54nt bottom methylated (54nt-2/3) (dsDNA)
DNA 1: GAAACCCGACAGGACTATAAAGATACCGGCGTTTCCCCCTGGAAGCTCCCTCGT
DNA 2: ACGAGGGAGCTTCCAGGGGGAAACGCCGGTATCTTTATAGTCCTGTCGGGTTTC
modifications: 5mC at strand 2 pos 27
B2: 66nt fully methylated (66nt-1/3) (dsDNA)
DNA 1: AAAAACGGCGTTTCCGGGTTCCATAGGCTCCGCACCGGTCTCTGATGACCAGGGCATCACATTTTT
DNA 2: AAAAATGTGATGCCCTGGTCATCAGAGACCGGTGCGGAGCCTATGGAACCCGGAAACGCCGTTTTT
modifications: 5mC at strand 1 pos 36 and strand 2 pos 30
B3: 55ntDcm2 fully methylated (55nt-5/7) (dsDNA)
DNA 1: ACTATAAAGATACCAGGCGTTTCCCCCTGGAAGCTCCCTCGTGCGCTCTCCTGTT
DNA 2: AACAGGAGAGCGCACGAGGGAGCTTCCAGGGGGAAACGCCTGGTATCTTTATAGT
modifications: 5mC at strand 1 pos 27 and strand 2 pos 27
B4: 55ntDcm2 non-methylated (55nt-6/8) (dsDNA)
DNA 1: B3 DNA 1
DNA 2: B3 DNA 2
B5: 55ntDcm2 bottom methylated (55nt-6/7) (dsDNA)
DNA 1: B3 DNA 1
DNA 2: B3 DNA 2
modifications: 5mC at strand 2 pos 27
B6: 55ntDcm2 top methylated (55nt-5/8) (dsDNA)
DNA 1: B3 DNA 1
DNA 2: B3 DNA 2
modifications: 5mC at strand 1 pos 27
B7: 55ntDcm1 non-methylated (55nt-2/4) (dsDNA)
DNA 1: GAAACCCGACAGGACTATAAAGATACCAGGCGTTTCCCCCTGGAAGCTCCCTCGT
DNA 2: ACGAGGGAGCTTCCAGGGGGAAACGCCTGGTATCTTTATAGTCCTGTCGGGTTTC
B8: 55ntDcm1 AmCAGG bottom (55nt-14/15) (dsDNA)
DNA 1: B7 DNA 1 with C26A
DNA 2: B7 DNA 2 with G30T
modifications: 5mC at strand 2 pos 27
B9: 55ntDcm1 TmCAGG full (55nt-17/19) (dsDNA)
DNA 1: B7 DNA 1 with C26T
DNA 2: B7 DNA 2 with G30A
modifications: 5mC at strand 1 pos 27 and strand 2 pos 27
B10: 55ntDcm1 CmCTGG top (55nt-21/24) (dsDNA)
DNA 1: B7 DNA 1 with A28T
DNA 2: B7 DNA 2 with T28A
modifications: 5mC at strand 1 pos 27
B11: 55ntDcm1 CmCCGG bottom (55nt-26/27) (dsDNA)
DNA 1: B7 DNA 1 with A28C
DNA 2: B7 DNA 2 with T28G
modifications: 5mC at strand 2 pos 27
B12: 55ntDcm1 top methylated (55nt-1/4) (dsDNA)
DNA 1: B7 DNA 1
DNA 2: B7 DNA 2
modifications: 5mC at strand 1 pos 27
B13: 55ntDcm1 TmCAGG bottom (55nt-18/19) (dsDNA)
DNA 1: B7 DNA 1 with C26T
DNA 2: B7 DNA 2 with G30A
modifications: 5mC at strand 2 pos 27
B14: 55ntDcm1 AmCAGG full (55nt-13/15) (dsDNA)
DNA 1: B7 DNA 1 with C26A
DNA 2: B7 DNA 2 with G30T
modifications: 5mC at strand 1 pos 27 and strand 2 pos 27
B15: 55ntDcm1 GmCAGG full (55nt-9/11) (dsDNA)
DNA 1: B7 DNA 1 with C26G
DNA 2: B7 DNA 2 with G30C
modifications: 5mC at strand 1 pos 27 and strand 2 pos 27
B16: 55ntDcm1 TmCAGG top (55nt-17/20) (dsDNA)
DNA 1: B7 DNA 1 with C26T
DNA 2: B7 DNA 2 with G30A
modifications: 5mC at strand 1 pos 27
B17: 55ntDcm1 fully methylated (55nt-1/3) (dsDNA)
DNA 1: B7 DNA 1
DNA 2: B7 DNA 2
modifications: 5mC at strand 1 pos 27 and strand 2 pos 27
B18: 55ntDcm1 CmCCGG full (55nt-25/27) (dsDNA)
DNA 1: B7 DNA 1 with A28C
DNA 2: B7 DNA 2 with T28G
modifications: 5mC at strand 1 pos 27 and strand 2 pos 27
B19: 55ntDcm1 GmCAGG bottom (55nt-10/11) (dsDNA)
DNA 1: B7 DNA 1 with C26G
DNA 2: B7 DNA 2 with G30C
modifications: 5mC at strand 2 pos 27
B20: 55ntDcm1 AmCAGG top (55nt-13/16) (dsDNA)
DNA 1: B7 DNA 1 with C26A
DNA 2: B7 DNA 2 with G30T
modifications: 5mC at strand 1 pos 27
B21: 55ntDcm1 GmCAGG top (55nt-9/12) (dsDNA)
DNA 1: B7 DNA 1 with C26G
DNA 2: B7 DNA 2 with G30C
modifications: 5mC at strand 1 pos 27
B22: 55ntDcm1 CmCGGG full (55nt-29/31) (dsDNA)
DNA 1: B7 DNA 1 with A28G
DNA 2: B7 DNA 2 with T28C
modifications: 5mC at strand 1 pos 27 and strand 2 pos 27
B23: 55ntDcm1 CmCTGG bottom (55nt-22/23) (dsDNA)
DNA 1: B7 DNA 1 with A28T
DNA 2: B7 DNA 2 with T28A
modifications: 5mC at strand 2 pos 27
B24: 55ntDcm1 bottom methylated (55nt-2/3) (dsDNA)
DNA 1: B7 DNA 1
DNA 2: B7 DNA 2
modifications: 5mC at strand 2 pos 27
B25: 55ntDcm1 CmCCGG top (55nt-25/28) (dsDNA)
DNA 1: B7 DNA 1 with A28C
DNA 2: B7 DNA 2 with T28G
modifications: 5mC at strand 1 pos 27
B26: 55ntDcm1 CmCGGG top (55nt-29/32) (dsDNA)
DNA 1: B7 DNA 1 with A28G
DNA 2: B7 DNA 2 with T28C
modifications: 5mC at strand 1 pos 27
B27: 55ntDcm1 CmCTGG full (55nt-21/23) (dsDNA)
DNA 1: B7 DNA 1 with A28T
DNA 2: B7 DNA 2 with T28A
modifications: 5mC at strand 1 pos 27 and strand 2 pos 27
B28: 55ntDcm1 CmCGGG bottom (55nt-30/31) (dsDNA)
DNA 1: B7 DNA 1 with A28G
DNA 2: B7 DNA 2 with T28C
modifications: 5mC at strand 2 pos 27
B29: 54nt top methylated (54nt-1/4) (dsDNA)
DNA 1: B1 DNA 1
DNA 2: B1 DNA 2
modifications: 5mC at strand 1 pos 27
B30: 56nt top methylated (56nt-1/4) (dsDNA)
DNA 1: CGGCGTTTCCGGGTTCCATAGGCTCCGCTCCGGCCTCTGATGACCAGGGCATCACA
DNA 2: TGTGATGCCCTGGTCATCAGAGGCCGGAGCGGAGCCTATGGAACCCGGAAACGCCG
modifications: 5mC at strand 1 pos 31
B31: 56nt non-methylated (56nt-2/4) (dsDNA)
DNA 1: B30 DNA 1
DNA 2: B30 DNA 2
B32: 56nt bottom methylated (56nt-2/3) (dsDNA)
DNA 1: B30 DNA 1
DNA 2: B30 DNA 2
modifications: 5mC at strand 2 pos 25 (Table S3; methods print 24)
B33: Sco5333 (enzyme, Streptomyces coelicolor, UniProt Q9ADD4 1-301, looked up)
chain: T1 sequence

Molecular target: T1, Sco5333
Assay: ITC

Row | Binder | Kd
1 | B1 | 1470 nM

Molecular target: MBD of human MeCP2 (human, UniProt P51608 77-166)
Assay: EMSA

Chain of MBD of human MeCP2 (P51608 77-166): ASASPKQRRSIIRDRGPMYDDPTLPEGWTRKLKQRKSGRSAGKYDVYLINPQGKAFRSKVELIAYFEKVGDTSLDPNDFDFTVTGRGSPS

Row | Binder | binding signal
2 | B2 | 64 fold preference over non-methylated

Molecular target: T1, Sco5333
Assay: EMSA

Row | Binder | binding result
3 | B3 | binds
4 | B4 | no binding
5 | B5 | binds
6 | B6 | binds
7 | B7 | no binding
8 | B8 | binds
9 | B9 | binds
10 | B10 | binds
11 | B11 | binds
12 | B12 | binds
13 | B13 | binds
14 | B14 | binds
15 | B15 | binds
16 | B16 | binds
17 | B17 | binds
18 | B18 | binds
19 | B19 | binds
20 | B20 | binds
21 | B21 | binds
22 | B22 | binds
23 | B23 | binds
24 | B24 | binds
25 | B25 | binds
26 | B26 | binds
27 | B27 | binds
28 | B28 | binds

Molecular target: MBD of mouse MeCP2 (mouse, UniProt Q9Z2D6 77-165)
Assay: EMSA

Chain of MBD of mouse MeCP2 (Q9Z2D6 77-165): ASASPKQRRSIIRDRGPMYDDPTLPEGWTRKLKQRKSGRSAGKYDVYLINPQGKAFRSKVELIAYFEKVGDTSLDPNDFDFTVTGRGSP

Row | Binder | binding result
29 | B29 | no binding
30 | B1 | no binding

Molecular target: T2, Tbis1
Assay: EMSA

Row | Binder | binding result
31 | B30 | binds
32 | B31 | no binding
33 | B32 | binds

Molecular target: T1, Sco5333
Assay: ITC
Remark: another data set of the same source

Row | Binder | Kd
34 | B29 | 3140 nM

Molecular target: the molecule itself
Assay: SEC

Row | Binder | stoichiometry N
35 | B33 | 2

Molecular target: T2, Tbis1
Assay: EMSA
Remark: another data set of the same source

Row | Binder | binding signal
36 | B2 | > 100 fold preference over non-methylated
